Measurements: publication PMC12691639

Target: His-K62-HA expressed in E. coli without the eukaryotic N-terminal signal sequence (Saccharomyces paradoxus)
Assay: denaturing SDS-PAGE and western blot (heat- and detergent-resistant oligomers); E. coli membrane fractions treated with urea before boiling with gel loading buffer; high molecular weight complex taken apart into discrete oligomers

His-K62-HA expressed in E. coli without the eukaryotic N-terminal signal sequence (natural protein)
stoichiometry N: > 9
